Reference: publication PMC3798187

Key:
[1] = biological target: FLAG-RACK1 WD1–4 (human RACK1 in which WD40 domains 5 to 7 have been deleted) (human); assay: co-IP; anti-FLAG immunoprecipitation (protein A magnetic beads) from extracts of mRNA-injected Xenopus embryos in EB buffer, 1 h at 4°C; Western blots with anti-xMELK, anti-RACK1, anti-FLAG or anti-myc antibodies; uninjected embryos as control
[2] = biological target: FLAG-RACK1 WD5–7 (human RACK1 in which WD40 domains 1 to 4 have been deleted) (human); assay: as above

fold of myc-xMELK co-immunoprecipitated (myc/FLAG ratio) compared to full length FLAG-RACK1 [1]: 2.1 times
fold of myc-xMELK co-immunoprecipitated (myc/FLAG ratio) compared to full length FLAG-RACK1 [2]: 0.7 times
Substance: myc-tagged xMELK (from UniProt Q91821 1-651) (enzyme)
